System: Escherichia coli TOP10
Assay: shrunken log2 fold change of peptide-encoding DNA abundance (4.5 h post-induction vs induction); higher = less antimicrobial activity (less host growth inhibition)
Conditions: time post-induction: 4.5 h; library: site-saturation at positions 5, 18, 19, 20
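Also: peptides expressed intracellularly from a pBAD plasmid library in pooled LB shake-flask culture, induced with 0.3% L-arabinose, DNA abundance read by NGS, three biological replicates, DESeq2 with apeglm shrinkage.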

Sequence: RRIRIRPPRLPRPRPRPMCGPRP
- shrunken log2 fold change: -0.0603

Sequence: RRIRQRPPRLPRPRPRPKAYPRP
- shrunken log2 fold change: 0.0697

Sequence: RRIRVRPPRLPRPRPRPRLNPRP
- shrunken log2 fold change: -0.00875

Sequence: RRIRIRPPRLPRPRPRPQIQPRP
- shrunken log2 fold change: -0.235

Sequence: RRIRNRPPRLPRPRPRPQKDPRP
- shrunken log2 fold change: -0.564

Sequence: RRIRWRPPRLPRPRPRPRMHPRP
- shrunken log2 fold change: 0.485

Sequence: RRIRGRPPRLPRPRPRPCKAPRP
- shrunken log2 fold change: 0.377

Sequence: RRIRTRPPRLPRPRPRPIFTPRP
- shrunken log2 fold change: -0.0602

Sequence: RRIRERPPRLPRPRPRPMIRPRP
- shrunken log2 fold change: 0.0011

Sequence: RRIRMRPPRLPRPRPRPNMWPRP
- shrunken log2 fold change: 0.0353

Sequence: RRIRVRPPRLPRPRPRPTYIPRP
- shrunken log2 fold change: -0.51

Sequence: RRIRWRPPRLPRPRPRPDAKPRP
- shrunken log2 fold change: 0.0403

Sequence: RRIRYRPPRLPRPRPRPNEDPRP
- shrunken log2 fold change: -0.246

Sequence: RRIRSRPPRLPRPRPRPMCRPRP
- shrunken log2 fold change: -0.147

Sequence: RRIRVRPPRLPRPRPRPVAMPRP
- shrunken log2 fold change: 0.0876

Sequence: RRIRHRPPRLPRPRPRPRLCPRP
- shrunken log2 fold change: 0.0797

Sequence: RRIRLRPPRLPRPRPRPRTYPRP
- shrunken log2 fold change: -0.319

Sequence: RRIRIRPPRLPRPRPRPSFPPRP
- shrunken log2 fold change: -0.779

Sequence: RRIRRRPPRLPRPRPRPYLYPRP
- shrunken log2 fold change: -0.362

Sequence: RRIRIRPPRLPRPRPRPIKPPRP
- shrunken log2 fold change: -0.254

Sequence: RRIRRRPPRLPRPRPRPYVVPRP
- shrunken log2 fold change: -0.121

Sequence: RRIRMRPPRLPRPRPRPVRCPRP
- shrunken log2 fold change: 0.117

Sequence: RRIRSRPPRLPRPRPRPNVVPRP
- shrunken log2 fold change: -0.0558

Sequence: RRIRHRPPRLPRPRPRPSTTPRP
- shrunken log2 fold change: -0.416

Sequence: RRIRYRPPRLPRPRPRPIFHPRP
- shrunken log2 fold change: -0.456

Sequence: RRIRLRPPRLPRPRPRPPGSPRP
- shrunken log2 fold change: 0.226

Sequence: RRIRGRPPRLPRPRPRPWGIPRP
- shrunken log2 fold change: 0.0344

Sequence: RRIRRRPPRLPRPRPRPYYIPRP
- shrunken log2 fold change: -0.584

Sequence: RRIRLRPPRLPRPRPRPHNAPRP
- shrunken log2 fold change: 1.08

Sequence: RRIRMRPPRLPRPRPRPRTDPRP
- shrunken log2 fold change: -0.0668

Sequence: RRIRLRPPRLPRPRPRPMCPPRP
- shrunken log2 fold change: 0.128

Sequence: RRIRKRPPRLPRPRPRPKRPPRP
- shrunken log2 fold change: 0.552

Sequence: RRIRTRPPRLPRPRPRPVLPPRP
- shrunken log2 fold change: 0.0511

Sequence: RRIRLRPPRLPRPRPRPWTYPRP
- shrunken log2 fold change: 0.0062

Sequence: RRIRMRPPRLPRPRPRPIARPRP
- shrunken log2 fold change: 0.184

Sequence: RRIRTRPPRLPRPRPRPGCFPRP
- shrunken log2 fold change: 0.0805

Sequence: RRIRMRPPRLPRPRPRPSCAPRP
- shrunken log2 fold change: 0.563

Sequence: RRIRIRPPRLPRPRPRPRWFPRP
- shrunken log2 fold change: 0.555

Sequence: RRIRDRPPRLPRPRPRPDIPPRP
- shrunken log2 fold change: 0.213

Sequence: RRIRWRPPRLPRPRPRPCKNPRP
- shrunken log2 fold change: -0.0451

Sequence: RRIRSRPPRLPRPRPRPAPEPRP
- shrunken log2 fold change: 0.479

Sequence: RRIRLRPPRLPRPRPRPHISPRP
- shrunken log2 fold change: -0.272

Sequence: RRIRGRPPRLPRPRPRPQIVPRP
- shrunken log2 fold change: 0.12

Sequence: RRIRDRPPRLPRPRPRPPFVPRP
- shrunken log2 fold change: 0.0811

Sequence: RRIRFRPPRLPRPRPRPYPWPRP
- shrunken log2 fold change: -0.9

Sequence: RRIRFRPPRLPRPRPRPVVAPRP
- shrunken log2 fold change: 0.0597

Sequence: RRIRERPPRLPRPRPRPAEWPRP
- shrunken log2 fold change: 0.143

Sequence: RRIRMRPPRLPRPRPRPKRSPRP
- shrunken log2 fold change: 2.25

Sequence: RRIRNRPPRLPRPRPRPKRWPRP
- shrunken log2 fold change: 0.0633

Sequence: RRIRVRPPRLPRPRPRPEVNPRP
- shrunken log2 fold change: -0.0796

Sequence: RRIRWRPPRLPRPRPRPWADPRP
- shrunken log2 fold change: 0.0109

Sequence: RRIRDRPPRLPRPRPRPAHGPRP
- shrunken log2 fold change: -0.0897

Sequence: RRIRRRPPRLPRPRPRPVICPRP
- shrunken log2 fold change: 0.164

Sequence: RRIRGRPPRLPRPRPRPNPNPRP
- shrunken log2 fold change: 0.215

Sequence: RRIRNRPPRLPRPRPRPLKEPRP
- shrunken log2 fold change: 0.00854

Sequence: RRIRFRPPRLPRPRPRPSTHPRP
- shrunken log2 fold change: -0.569

Sequence: RRIRWRPPRLPRPRPRPGLKPRP
- shrunken log2 fold change: -0.109

Sequence: RRIRGRPPRLPRPRPRPGYGPRP
- shrunken log2 fold change: -0.0363

Sequence: RRIRVRPPRLPRPRPRPYNTPRP
- shrunken log2 fold change: -0.326

Sequence: RRIRRRPPRLPRPRPRPSNAPRP
- shrunken log2 fold change: 0.204

Sequence: RRIRWRPPRLPRPRPRPATTPRP
- shrunken log2 fold change: 0.859

Sequence: RRIRPRPPRLPRPRPRPHKHPRP
- shrunken log2 fold change: -0.268

Sequence: RRIRGRPPRLPRPRPRPIDDPRP
- shrunken log2 fold change: 0.329

Sequence: RRIRGRPPRLPRPRPRPKYFPRP
- shrunken log2 fold change: -0.251

Sequence: RRIRRRPPRLPRPRPRPVTGPRP
- shrunken log2 fold change: 0.0301

Sequence: RRIRKRPPRLPRPRPRPPLAPRP
- shrunken log2 fold change: 1.06

Sequence: RRIRFRPPRLPRPRPRPPPPPRP
- shrunken log2 fold change: 1.58

Sequence: RRIRVRPPRLPRPRPRPFNGPRP
- shrunken log2 fold change: -0.15

Sequence: RRIRSRPPRLPRPRPRPQYLPRP
- shrunken log2 fold change: -0.683

Sequence: RRIRCRPPRLPRPRPRPPQYPRP
- shrunken log2 fold change: -0.0607

Sequence: RRIRWRPPRLPRPRPRPMVYPRP
- shrunken log2 fold change: 0.0222

Sequence: RRIRKRPPRLPRPRPRPICMPRP
- shrunken log2 fold change: 0.0199

Sequence: RRIRWRPPRLPRPRPRPKEKPRP
- shrunken log2 fold change: 0.0316

Sequence: RRIRPRPPRLPRPRPRPRHAPRP
- shrunken log2 fold change: 0.502

Sequence: RRIRHRPPRLPRPRPRPKHMPRP
- shrunken log2 fold change: -0.0234

Sequence: RRIRHRPPRLPRPRPRPSSVPRP
- shrunken log2 fold change: 0.0608

Sequence: RRIRGRPPRLPRPRPRPTMYPRP
- shrunken log2 fold change: 0.032

Sequence: RRIRDRPPRLPRPRPRPPSPPRP
- shrunken log2 fold change: 0.494

Sequence: RRIRMRPPRLPRPRPRPWIVPRP
- shrunken log2 fold change: 0.0842

Sequence: RRIRNRPPRLPRPRPRPEDSPRP
- shrunken log2 fold change: -0.0784

Sequence: RRIRCRPPRLPRPRPRPAQRPRP
- shrunken log2 fold change: 0.613

Sequence: RRIRWRPPRLPRPRPRPWAGPRP
- shrunken log2 fold change: 0.167

Sequence: RRIRVRPPRLPRPRPRPQVLPRP
- shrunken log2 fold change: 0.00638

Sequence: RRIRVRPPRLPRPRPRPHEDPRP
- shrunken log2 fold change: 0.0277

Sequence: RRIRQRPPRLPRPRPRPEIWPRP
- shrunken log2 fold change: 0.618

Sequence: RRIRRRPPRLPRPRPRPHFKPRP
- shrunken log2 fold change: -0.0168

Sequence: RRIRSRPPRLPRPRPRPSAPPRP
- shrunken log2 fold change: 0.287

Sequence: RRIRQRPPRLPRPRPRPSHQPRP
- shrunken log2 fold change: -0.0977

Sequence: RRIRYRPPRLPRPRPRPNMSPRP
- shrunken log2 fold change: -0.675

Sequence: RRIRMRPPRLPRPRPRPSFCPRP
- shrunken log2 fold change: -0.0778

Sequence: RRIRNRPPRLPRPRPRPRRMPRP
- shrunken log2 fold change: 0.207

From the supplement of paper PMC9112550, “Optimization of the antimicrobial peptide Bac7 by deep mutational scanning” (BMC Biology, 2022)
